Data set [1] deals with T1, myoglobin (Mb) (UniProt P02144 2-154).
T1 sequence: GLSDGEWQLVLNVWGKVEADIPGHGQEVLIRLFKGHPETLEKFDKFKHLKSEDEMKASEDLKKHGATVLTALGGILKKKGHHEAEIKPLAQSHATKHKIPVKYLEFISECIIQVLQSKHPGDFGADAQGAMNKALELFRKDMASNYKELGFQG
The data set can be described thus: dot blot (aptamer blotting); folded in 10 mM K acetate pH 5.0; dot blot: 10 mM sodium phosphate pH 7.0, 10 mM KCl, 0.05% Tween-20, 100 nM oligonucleotide, 25 C, 1 h (block 2% BSA); ELONA: 500 nM aptamer, 25 C, 1 h, TBS-T wash. The following applies: protein: commercial; label: 3'-biotinylated oligonucleotide mixed; mixed or hybrid (3+1) G4 at pH 5.0.

The target of data set [2] is T1, myoglobin (Mb). The data set can be described thus: dot blot (aptamer blotting); folded in 10 mM K acetate pH 5.0; higher signal than N2 at low Mb; dot blot: 10 mM sodium phosphate pH 7.0, 10 mM KCl, 0.05% Tween-20, 100 nM oligonucleotide, 25 C, 1 h (block 2% BSA); ELONA: 500 nM aptamer, 25 C, 1 h, TBS-T wash. The following applies: protein: commercial; label: 3'-biotinylated oligonucleotide mixed; parallel G4 at pH 7.0 with 10 mM Na+ and 10 mM K+.

The source of these data is paper PMC11578312, “Proximity‐Unlocked Luminescence by Sequential Enzymatic Reactions from Antibody and Antibody/Aptamer (PULSERAA): A Platform for Detection and Visualization of Virus‐Containing Spots”.

As to GGGGCTGCTCGGGATTGCGGATATGGTTTGGGCGGGTTGGGCTGGG (structured_DNA) [RBD-46–PEA3-01], the binding result in data set [1] is recorded as “binds”.

Consider GGGCGGGTTGGGCTGGGTTTGGGGCTGCTCGGGATTGCGGATATGG (structured_DNA) [PEA3-01–RBD-46], for which the binding result in data set [2] is listed as “binds”.
